Source: publication PMC11139282, “Structure and activity of the septal peptidoglycan hydrolysis machinery crucial for bacterial cell division” (PLOS Biology, 2024)

T1: EnvC_(35-420) (E. coli K-12, UniProt P37690 35-419)
T1 construct: Only part of the coiled-coil domain is modelled in the cryo-EM structure; also called ecEnvC; source: E. coli C43(DE3), purified (Ni-NTA, SEC, TEV, Ni-NTA, SEC); not shown: His8, N-terminal, cleaved; SUMO, N-terminal, cleaved; Strep tag II, C-terminal, kept
T1 sequence (looked up): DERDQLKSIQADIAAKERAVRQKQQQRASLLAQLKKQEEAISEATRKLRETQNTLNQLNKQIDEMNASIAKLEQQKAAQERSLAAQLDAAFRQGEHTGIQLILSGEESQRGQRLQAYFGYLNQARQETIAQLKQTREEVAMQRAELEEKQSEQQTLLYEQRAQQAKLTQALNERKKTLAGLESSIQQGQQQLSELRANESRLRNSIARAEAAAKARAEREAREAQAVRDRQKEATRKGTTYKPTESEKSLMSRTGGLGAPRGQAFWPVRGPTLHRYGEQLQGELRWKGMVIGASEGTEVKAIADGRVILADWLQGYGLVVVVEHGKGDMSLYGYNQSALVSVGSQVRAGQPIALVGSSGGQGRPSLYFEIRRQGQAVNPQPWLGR


Legend:
[1] = target: T1, EnvC_(35-420); assay: cryo-EM structure; ATP-bound FtsE^E163QX^Δ4-18-EnvC(35-420) reconstituted in PMAL-C8, about 1 mg/ml, 3.11 Å; details: both partners purified
[2] = target: the molecule itself; assay: as above
[3] = target: T1, EnvC_(35-420); assay: pull-down + SEC; purified FtsE^E163QX or FtsX incubated with EnvC(35-420)-Strep at a molar ratio of 1:1.5, moved into PMAL-C8; Strep column to remove unbound FtsEX or FtsX, then Superdex 200 in 20 mM Tris pH 8.0, 300 mM NaCl (1 mM ATP for FtsE^E163QX); peak validated by SDS-PAGE; details: both partners purified

| Binder | binding result [1] | binding result [2] | binding result [3] |
| --- | --- | --- | --- |
| FtsX^Δ4–18 (natural protein, E. coli K-12, UniProt P0AC30 1-352, looked up, FtsX, E. coli K-12, with residues 4-18 deleted; The results call the cryo-EM sample FtsE^E163QX; the methods say that the grids held FtsE^E163QX^Δ4-18; also called ecFtsX) MNKRFRKSVGGSGDGGRNAPKRAKSSPKPVNRKTNVFNEQVRYAFHGALQDLKSKPFATFLTVMVIAISLTLPSVCYMVYKNVNQAATQYYPSPQITVYLQKTLDDDAAAGVVAQLQAEQGVEKVNYLSREDALGEFRNWSGFGGALDMLEENPLPAVAVVIPKLDFQGTESLNTLRDRITQINGIDEVRMDDSWFARLAALTGLVGRVSAMIGVLMVAAVFLVIGNSVRLSIFARRDSINVQKLIGATDGFILRPFLYGGALLGFSGALLSLILSEILVLRLSSAVAEVAQVFGTKFDINGLSFDECLLLLLVCSMIGWVAAWLATVQHLRHFTPE | binds | binds |  |
| FtsE^E163Q (natural protein, E. coli K-12, UniProt P0A9R7 1-222, looked up, The pSUMO plasmid adds an N-terminal His8-SUMO-TEV site, removed by TEV; Two copies stand in the FtsEX complex; also called ecFtsE^E163Q; not shown: His8 (chain inferred: first gene of pSUMO-ftsEX), N-terminal, cleaved; SUMO (chain inferred: first gene of pSUMO-ftsEX), N-terminal, cleaved) MIRFEHVSKAYLGGRQALQGVTFHMQPGEMAFLTGHSGAGKSTLLKLICGIERPSAGKIWFSGHDITRLKNREVPFLRRQIGMIFQDHHLLMDRTVYDNVAIPLIIAGASGDDIRRRVSAALDKVGLLDKAKNFPIQLSGGEQQRVGIARAVVNKPAVLLADQPTGNLDDALSEGILRLFEEFNRVGVTVLMATHDINLISRRSYRMLTLSDGHLHGGVGHE |  | binds |  |
| FtsX (purified alone) (natural protein, E. coli K-12, UniProt P0AC30 1-352, looked up, FtsX, E. coli K-12; The plasmid section describes pET28a-ftsX (N-terminal 8xHis); the purification section names pSUMO-ftsX (His8-SUMO), tag not removed; Whether SUMO stood on the protein is open; not shown: His8, N-terminal, kept) MNKRDAINHIRQFGGRLDRFRKSVGGSGDGGRNAPKRAKSSPKPVNRKTNVFNEQVRYAFHGALQDLKSKPFATFLTVMVIAISLTLPSVCYMVYKNVNQAATQYYPSPQITVYLQKTLDDDAAAGVVAQLQAEQGVEKVNYLSREDALGEFRNWSGFGGALDMLEENPLPAVAVVIPKLDFQGTESLNTLRDRITQINGIDEVRMDDSWFARLAALTGLVGRVSAMIGVLMVAAVFLVIGNSVRLSIFARRDSINVQKLIGATDGFILRPFLYGGALLGFSGALLSLILSEILVLRLSSAVAEVAQVFGTKFDINGLSFDECLLLLLVCSMIGWVAAWLATVQHLRHFTPE |  |  | binds |
